B1: SW-B1 (antibody, V domains shown)
VH: QVQLVQSGAEVKKPGASVKVSCTASGDTFTTYYMNWMRQAPGQGLEWMGIINPSGGSTSYAQKFQGRVTMTRDTSRSTVYMELSSLRSEDTAVYYCATPSLEEAEGGPQLAFDIWGQGTMVTVSS
VL: not shown
B2: SW-A9 (antibody, V domains shown)
VH: QMQLVQSGPEVKKPGTSVKVSCKASGFTFTNSAMQWVRQARGQRLEWVGWIVVASGNANSARRFHDRVTITSDMSTSTAYLELSSLRSEDTAVYYCALNHCSNTTCLDGFDIWGQGTMVSVSS
VL: EIVLTQSPVTLSLSPGERATLSCRASQSVRNSLLAWYQQKPGQAPRLLIYAASSRATGIPDRFSGSGSGTDFTLTISRLEPEDFVVYYCQQHGSSPPWTFGQGTKVEFKR
B3: CZ-D7 (antibody, V domains shown)
VH: QVQLVQSGAEVKTPGSSVKVSCKASGGSFSNYAISWVRQAPGQGLEWMGRIIATLGISNYAQKFQGRVTMTADKSTSTAYMELSSLRSEDTAVYYCASPITNFGVLIEVDAFHIWGQGTMVTVSS
VL: EIVLTQSPFTLSLSPGERATLSCGASQSVSSSYLAWYQQKPGLAPRLLIYDGSSRATDIPDRFSGSGSGTDFTLTISRLEPEDFAMYYCQQYSTSPLTFGGGTKVEIKR

biological target: SARS-Cov-2的生物素化RBD(NC_045512) (SARS-CoV-2, UniProt P0DTC2 319-541)

| Binder | Kd |
| --- | --- |
| B1 | 0.0943 nM |
| B2 | < 0.001 nM |
| B3 | < 0.001 nM |

Reference: CN113512113A (THE FIRST AFFILIATED HOSPITAL COLLEGE OF MEDICINE ZHEJIANG …, dated 2021)
